# Measured values: US20240383984A1 (Genentech, published 2024)
# Where a chain is given by its changes, count along the chain named.
# T1: human E11 protein (amino acids 745-850 of SEQ ID NO: 114, N-terminal His tag) (human, UniProt Q96RD9 745-850)
# T1 construct: Membrane-proximal Ig domain of FcRH5, produced in CHO cells; also called human E11 domain; recombinant human E11
# T1 sequence: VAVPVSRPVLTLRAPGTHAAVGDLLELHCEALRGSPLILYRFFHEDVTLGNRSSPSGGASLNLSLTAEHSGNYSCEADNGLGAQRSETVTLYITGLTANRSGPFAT
# T2: cynomolgus E11 domain protein (cynomolgus monkey)
# T2 construct: whole entry named; also called cyno E11
# T2 chain: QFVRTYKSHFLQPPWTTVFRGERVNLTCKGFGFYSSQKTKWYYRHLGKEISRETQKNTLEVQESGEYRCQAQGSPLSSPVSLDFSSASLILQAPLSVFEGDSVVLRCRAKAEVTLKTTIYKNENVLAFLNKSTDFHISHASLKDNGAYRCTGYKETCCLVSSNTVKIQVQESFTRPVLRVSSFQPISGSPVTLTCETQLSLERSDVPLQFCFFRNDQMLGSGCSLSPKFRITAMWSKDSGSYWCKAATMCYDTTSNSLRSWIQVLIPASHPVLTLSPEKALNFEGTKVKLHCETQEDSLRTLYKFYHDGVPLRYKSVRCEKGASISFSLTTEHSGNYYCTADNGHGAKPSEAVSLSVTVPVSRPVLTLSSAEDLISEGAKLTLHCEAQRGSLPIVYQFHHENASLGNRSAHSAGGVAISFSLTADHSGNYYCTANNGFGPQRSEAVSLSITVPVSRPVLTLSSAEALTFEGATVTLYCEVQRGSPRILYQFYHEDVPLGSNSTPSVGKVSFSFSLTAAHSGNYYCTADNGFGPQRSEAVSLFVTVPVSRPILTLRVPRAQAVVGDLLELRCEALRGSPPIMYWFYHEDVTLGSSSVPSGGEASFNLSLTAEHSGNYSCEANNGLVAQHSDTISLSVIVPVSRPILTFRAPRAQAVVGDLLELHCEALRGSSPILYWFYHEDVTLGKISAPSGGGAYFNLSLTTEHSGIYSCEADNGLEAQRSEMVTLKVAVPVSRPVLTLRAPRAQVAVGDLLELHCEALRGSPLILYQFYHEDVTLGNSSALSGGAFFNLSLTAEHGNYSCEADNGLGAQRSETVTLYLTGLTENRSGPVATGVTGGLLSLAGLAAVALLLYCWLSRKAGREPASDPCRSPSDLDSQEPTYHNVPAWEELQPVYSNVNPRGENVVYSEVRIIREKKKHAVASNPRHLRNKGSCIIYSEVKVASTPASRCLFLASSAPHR
# T3: cynomolgus FcRH5 (full-length, on cells) (cynomolgus monkey)
# T3 construct: also called SVT2-Cyno-FcRH5; cyno FcRH5
# T3 chain: T2 chain
# T4: human FcRH3 (full-length, on SVT2 cells) (human, UniProt Q96P31 18-734)
# T4 construct: whole, on cells; also called SVT2-FcRH3
# T4 sequence (looked up): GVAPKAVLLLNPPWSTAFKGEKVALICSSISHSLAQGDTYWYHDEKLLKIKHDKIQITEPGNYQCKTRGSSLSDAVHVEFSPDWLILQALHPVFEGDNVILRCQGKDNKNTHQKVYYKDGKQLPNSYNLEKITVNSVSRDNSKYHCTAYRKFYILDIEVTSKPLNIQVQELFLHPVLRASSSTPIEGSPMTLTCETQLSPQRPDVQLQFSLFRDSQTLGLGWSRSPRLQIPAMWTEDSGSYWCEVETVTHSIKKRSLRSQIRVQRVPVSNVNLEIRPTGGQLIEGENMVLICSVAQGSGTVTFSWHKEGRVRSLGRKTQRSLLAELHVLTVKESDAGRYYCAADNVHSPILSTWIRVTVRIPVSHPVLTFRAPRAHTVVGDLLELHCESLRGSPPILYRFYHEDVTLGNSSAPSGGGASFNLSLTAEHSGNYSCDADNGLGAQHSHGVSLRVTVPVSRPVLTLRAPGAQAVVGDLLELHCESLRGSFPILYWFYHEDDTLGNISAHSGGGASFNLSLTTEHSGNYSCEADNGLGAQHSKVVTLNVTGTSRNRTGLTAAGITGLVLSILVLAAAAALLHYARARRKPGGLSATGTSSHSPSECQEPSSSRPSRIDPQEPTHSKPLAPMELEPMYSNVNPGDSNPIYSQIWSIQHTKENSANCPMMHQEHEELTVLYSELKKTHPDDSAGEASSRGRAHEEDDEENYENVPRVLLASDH
# B1: 17B1 (antibody, mouse IgG2a, V domains shown)
# VH: QVQLQQSGPELVRPGVSVKISCKGSGYTFTHYAMHWVKQSHTKSLEWIGMISSSSGNTNFNQKFMDKATMTVDKSSTTAYLELARLTFGDSAIYYCARWSYYALFDYWGQGTTVTVSS
# VL: ENVLTQSPAIMSASPGEKVTMTCSADSSVDYIHWYQQKSNTSPKLWIYDTSKLASGVPGRFSGSGSGNSYSLTISSMEAEDFATYYCFQGSGYPLTFGSGTKLELK
# notes: mouse mAb, Campaign C; recombinant murine IgG2a for SPR
# B2: 15G8 (antibody, mouse IgG2a, V domains shown)
# VH: EVQLQQSGPELVKPGASVKMSCKASGYTFTNYVIHWMKQKPGQGLEWIGYISPYNDYTKYNEKFEGKATLTSDKSSNTAYMELSSLTSEDSAVYYCARRDYYGSSDYWGQGTTLTVSS
# VL: QIVLTQSPAIMSASPGEKVTMTCSASSSVDYMHWYQQKSGTSPKKWIYDTSKLASGVPARFSGSGSGTSYSLTIGSMEAEDAATYYCQQWSSNPPTFGGGTKLEIK
# notes: mouse mAb, Campaign C; recombinant murine IgG2a for SPR; also called mAb 15G8
# B3: hu1G7.v1.13.1/38E4.v1 TDB (bispecific antibody, V domains shown)
# VH 1: EVQLVESGPGLVKPSETLSLTCTVSGFSLTRFGVHWVRQPPGKGLEWLGVIWRGGSTDYNAAFMSRLTISKDNSKNQVSLKLSSVTAADTAVYYCSNHYYGSSDYALDNWGQGTLVTVSS
# VL 1: DIQMTQSPSSLSASVGDRVTITCKASQDVRNLVVWFQQKPGKAPKLLIYSGYYRYTGVPSRFSGSGSGTDFTLTISSLQPEDFATYYCQQHYQPPYTFGQGTKVEIK
# VH 2: EVQLVQSGAEVKKPGASVKVSCKASGFTFTSYYIHWVRQAPGQGLEWIGWIYPENDNTKYNEKFKDRVTITADTSTSTAYLELSSLRSEDTAVYYCARDGYSRYYFDYWGQGTLVTVSS
# VL 2: DIVMTQSPDSLAVSLGERATINCKSSQSLLNSRTRKNYLAWYQQKPGQSPKLLIYWTSTRKSGVPDRFSGSGSGTDFTLTISSLQAEDVAVYYCKQSFILRTFGQGTKVEIK
# notes: knob-into-hole TDB; also called 1G7.v1.13.1 TDB
# B4: hu1G7.v1.13/38E4.v1 TDB (bispecific antibody, V domains shown)
# VH 1: B3 VH 1 with L48I
# VL 1: B3 VL 1
# VH 2: B3 VH 2
# VL 2: B3 VL 2
# notes: knob-into-hole TDB; also called 1G7.v1.13 TDB
# B5: hu1G7.v1.2/38E4.v1 TDB (bispecific antibody, V domains shown)
# VH 1: B3 VH 1
# VL 1: B3 VL 1 with Y53N, T56S, H91Q, Y92F
# VH 2: B3 VH 2
# VL 2: B3 VL 2
# notes: knob-into-hole TDB; also called 1G7.v1.2 TDB
# B6: hu1G7.v1.3/38E4.v1 TDB (bispecific antibody, V domains shown)
# VH 1: B3 VH 1
# VL 1: B3 VL 1 with L32I, Y52S, T56S, H91Q, Q93S
# VH 2: B3 VH 2
# VL 2: B3 VL 2
# notes: knob-into-hole TDB; also called 1G7.v1.3 TDB
# B7: hu1G7.v1.1/38E4.v1 TDB (bispecific antibody, V domains shown)
# VH 1: B3 VH 1
# VL 1: B3 VL 1 with Y52S, T56S, H91Q, Q93S
# VH 2: B3 VH 2
# VL 2: B3 VL 2
# notes: knob-into-hole TDB; also called 1G7.v1.1 TDB
# Target: T1, human E11 protein (amino acids 745-850 …)
# Test: SPR, IgG captured on protein A, monovalent
# Method: (§1) *E11 domain, transmembrane domain, and cytoplasmic domains of human FcRHS. §Surface plasmon resonance BIACORE * KD, monovalent affinity. Human E11 domain experiments were performed 1 to 3 times and averaged.
# (§2) Briefly, test antibodies were captured on flow cells 2, 3 or 4 with flow cell 1 as a reference on a protein A Series S CM5 chip (GE Life Sciences, Piscataway, NJ). An FcRH5 protein fragment was used as analyte, with a flow rate of 30 μl/minute. Between injections the capture surface was regenerated by a 30 second injection of 10 mM glycine, pH 1.5 at a flow rate of 10 μl/minute. Interactions were assessed at 25° C. in 10 mM HEPES pH 7.4, 150 mM NaCl, 0.05% Tween 20 (HBSP). Reference data from the reference flow cell and from injection of buffer alone was subtracted prior to kinetic analysis. Kinetic information was calculated by fitting data to a 1:1 binding model. Reference subtraction and data fitting were performed using BIAevaluation software (GE Life Sciences, Piscataway, NJ).
row,Kd,Binder
1,68 nM,B1
2,0.5 nM,B2

# Target: T2, cynomolgus E11 domain protein
# Test: SPR, IgG captured on protein A, monovalent
# Method: as §1, §2
row,Kd,Binder
1,27 nM,B1
2,9.1 nM,B2

# Target: T3, cynomolgus FcRH5 (full-length, on cells)
# Test: FACS, SVT2 cells, 3 µg/ml
# Method: (§3) Human FcRH5, cyno FcRH5, human FcRH1, FcRH2, FcRH3, and FcRH4 transfected mouse SVT2 cells were used to test binding and cross-reactivity of FcRH5 TDBs. The method was carried out as follows. Cultured SVT2 cells were lifted using non-enzyme cell dissociation buffer (Sigma, #C5914). 1×10⁵ cells were suspended in 100 μL and incubated with FcRH5 TDBs at 3 μg/ml. […] Cells were washed twice with FACS buffer before flow cytometry analysis was carried out on a FACSCalibur.
row,binding result,Binder
1,binds,B3
2,binds,B4
3,binds,B5
4,binds,B6
5,binds,B7

# Target: T4, human FcRH3 (full-length, on SVT2 cells)
# Test: FACS, SVT2 cells, 3 µg/ml
# Method: as §3
row,binding result,Binder
1,binds,B3
2,binds,B4
3,binds,B5
4,binds,B6
5,binds,B7
